From patent publication US20090226442A1 (published 2009) come the findings set out here.

Read-outs that look alike come from different tables or passages of the source.

For test [1], the target named is T1, soluble cynomolgus (Macaca fascicularis) RON protein (cynomolgus (Macaca fascicularis), UniProt A0A2K5VT07 25-571).
T1 chain: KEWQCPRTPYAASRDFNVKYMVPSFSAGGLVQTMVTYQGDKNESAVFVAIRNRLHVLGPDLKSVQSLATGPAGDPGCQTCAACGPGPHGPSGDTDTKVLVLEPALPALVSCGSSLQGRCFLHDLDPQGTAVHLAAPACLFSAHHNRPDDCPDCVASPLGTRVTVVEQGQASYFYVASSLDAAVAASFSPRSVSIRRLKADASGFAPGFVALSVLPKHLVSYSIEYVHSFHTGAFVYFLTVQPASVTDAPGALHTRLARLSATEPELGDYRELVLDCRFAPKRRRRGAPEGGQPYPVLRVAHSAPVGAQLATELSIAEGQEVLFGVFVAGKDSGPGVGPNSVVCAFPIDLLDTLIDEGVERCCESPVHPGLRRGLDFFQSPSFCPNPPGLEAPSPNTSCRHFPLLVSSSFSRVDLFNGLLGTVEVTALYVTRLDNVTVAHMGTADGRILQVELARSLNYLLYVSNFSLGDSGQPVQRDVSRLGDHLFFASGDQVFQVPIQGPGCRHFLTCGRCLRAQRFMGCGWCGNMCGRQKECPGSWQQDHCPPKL
Briefly: ELISA; 4-P fit C.

In test [2] the target is T2, soluble human RON protein (R&D Systems, catalog 1947) (UniProt Q04912 25-571). Put plainly: ELISA; 4-P fit C.
The target in test [3] is human RON (recepteur d'origine nantais, MST1R), full length, expressed on cells (UniProt Q04912 25-1400). Briefly: FACS.
Test [4] addresses T2, soluble human RON protein (R&D Systems, …). Put plainly: ELISA.
For test [5], the target named is T1, soluble cynomolgus (Macaca …). Put plainly: ELISA; 4-P fit C.
The target in test [6] is T2, soluble human RON protein (R&D Systems, …). Put plainly: ELISA; 4-P fit C. This is another data set of the same source.

T2 sequence (Q04912 25-571): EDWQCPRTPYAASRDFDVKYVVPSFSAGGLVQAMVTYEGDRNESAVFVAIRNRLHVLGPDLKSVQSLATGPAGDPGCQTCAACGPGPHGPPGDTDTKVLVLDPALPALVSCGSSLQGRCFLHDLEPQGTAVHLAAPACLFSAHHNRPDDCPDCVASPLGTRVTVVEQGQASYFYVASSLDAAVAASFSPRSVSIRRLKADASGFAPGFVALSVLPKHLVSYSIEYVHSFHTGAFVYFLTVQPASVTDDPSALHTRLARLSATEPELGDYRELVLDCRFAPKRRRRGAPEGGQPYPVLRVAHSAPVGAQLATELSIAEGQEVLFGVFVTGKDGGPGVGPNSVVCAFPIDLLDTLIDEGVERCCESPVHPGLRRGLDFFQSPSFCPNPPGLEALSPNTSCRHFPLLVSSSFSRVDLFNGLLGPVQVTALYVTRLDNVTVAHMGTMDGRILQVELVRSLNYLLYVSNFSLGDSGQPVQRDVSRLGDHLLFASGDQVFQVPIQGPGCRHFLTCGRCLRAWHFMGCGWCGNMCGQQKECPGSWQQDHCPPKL
human RON (recepteur d'origine nantais, MST1R), full length, expressed on cells, sequence (Q04912 25-1400): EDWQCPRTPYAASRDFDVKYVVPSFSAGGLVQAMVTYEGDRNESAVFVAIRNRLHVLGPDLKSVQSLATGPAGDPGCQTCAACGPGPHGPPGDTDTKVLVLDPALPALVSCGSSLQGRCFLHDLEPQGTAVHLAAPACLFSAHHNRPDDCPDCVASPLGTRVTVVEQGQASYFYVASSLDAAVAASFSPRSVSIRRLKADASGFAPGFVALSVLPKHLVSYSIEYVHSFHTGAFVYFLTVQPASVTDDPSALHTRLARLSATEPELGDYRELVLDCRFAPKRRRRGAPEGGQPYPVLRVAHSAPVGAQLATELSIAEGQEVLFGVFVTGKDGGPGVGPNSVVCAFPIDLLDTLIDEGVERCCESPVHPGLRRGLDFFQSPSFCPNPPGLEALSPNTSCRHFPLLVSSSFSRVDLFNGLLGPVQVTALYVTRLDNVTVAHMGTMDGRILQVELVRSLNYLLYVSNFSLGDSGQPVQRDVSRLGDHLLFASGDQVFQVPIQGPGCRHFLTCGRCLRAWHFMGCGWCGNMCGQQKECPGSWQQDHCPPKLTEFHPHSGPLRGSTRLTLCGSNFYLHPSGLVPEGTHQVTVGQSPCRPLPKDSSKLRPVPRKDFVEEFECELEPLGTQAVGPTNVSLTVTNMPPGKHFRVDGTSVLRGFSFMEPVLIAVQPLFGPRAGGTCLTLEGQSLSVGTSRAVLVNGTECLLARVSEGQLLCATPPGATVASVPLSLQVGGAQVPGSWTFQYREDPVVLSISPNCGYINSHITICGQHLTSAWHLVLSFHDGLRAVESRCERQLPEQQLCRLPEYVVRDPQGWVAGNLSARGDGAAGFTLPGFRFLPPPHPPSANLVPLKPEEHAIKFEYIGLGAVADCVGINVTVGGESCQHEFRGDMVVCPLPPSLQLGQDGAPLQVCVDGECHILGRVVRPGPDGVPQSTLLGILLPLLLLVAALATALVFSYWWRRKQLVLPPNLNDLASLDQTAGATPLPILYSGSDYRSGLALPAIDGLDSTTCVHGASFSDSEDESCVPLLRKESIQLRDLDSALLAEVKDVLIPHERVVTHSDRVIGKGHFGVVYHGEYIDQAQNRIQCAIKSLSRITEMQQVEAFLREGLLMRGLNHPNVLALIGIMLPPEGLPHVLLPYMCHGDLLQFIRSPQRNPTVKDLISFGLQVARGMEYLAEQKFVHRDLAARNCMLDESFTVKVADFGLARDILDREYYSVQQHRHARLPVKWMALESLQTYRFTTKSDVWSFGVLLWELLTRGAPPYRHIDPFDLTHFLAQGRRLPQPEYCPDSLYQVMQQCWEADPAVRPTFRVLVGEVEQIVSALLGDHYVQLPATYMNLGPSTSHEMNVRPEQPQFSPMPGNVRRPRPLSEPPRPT

B1: human macrophage stimulating protein (MSP) (R&D Systems cat. #4306-MS) (ligand)
chain: QRSPLNDFQVLRGTELQHLLHAVVPGPWQEDVADAEECAGRCGPLMDCRAFHYNVSSHGCQLLPWTQHSPHTRLRRSGRCDLFQKKDYVRTCIMNNGVGYRGTMATTVGGLPCQAWSHKFPNDHKYTPTLRNGLEENFCRNPDGDPGGPWCYTTDPAVRFQSCGIKSCREAACVWCNGEEYRGAVDRTESGRECQRWDLQHPHQHPFEPGKFLDQGLDDNYCRNPDGSERPWCYTTDPQIEREFCDLPRCGSEAQPRQEATTVSCFRGKGEGYRGTANTTTAGVPCQRWDAQIPHQHRFTPEKYACKDLRENFCRNPDGSEAPWCFTLRPGMRAAFCYQIRRCTDDVRPQDCYHGAGEQYRGTVSKTRKGVQCQRWSAETPHKPQFTFTSEPHAQLEENFCRNPDGDSHGPWCYTMDPRTPFDYCALRRCADDQPPSILDPPDQVQFEKCGKRVDRLDQRRSKLRVVGGHPGNSPWTVSLRNRQGQHFCGGSLVKEQWILTARQCFSSCHMPLTGYEVWLGTLFQNPQHGEPSLQRVPVAKMVCGPSGSQLVLLKLERSVTLNQRVALICLPPEWYVVPPGTKCEIAGWGETKGTGNDTVLNVALLNVISNQECNIKHRGRVRESEMCTEGLLAPVGACEGDYGGPLACFTHNCWVLEGIIIPNRVCARSRWPAVFTRVSVFVDWIHKVMRLG
B1: the EC50 turned out to be 0.038 µg/mL in test [1] and 0.03 µg/mL in test [2].

B2: 1P2E7 murine monoclonal anti-RON antibody (antibody, V domains shown)
VH: DVQLQESGPGLVKPSQSLSLTCTVTGDSITSDYAWNWIRQFPGNKLEWMGYISYSGSTSYNPSLKSRFSITRDTSKNQFFLQLNSVTTEDSATYYCARGGFYYRYAGPGFAYWGQGTLVTVSA
VL: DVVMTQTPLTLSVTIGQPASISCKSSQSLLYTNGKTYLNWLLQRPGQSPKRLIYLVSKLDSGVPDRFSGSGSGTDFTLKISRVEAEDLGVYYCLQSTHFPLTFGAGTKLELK
B2: the EC50 in test [3] was 0.013 µg/mL; in test [4] it was 0.018 µg/mL; in test [5], 0.002 µg/mL; in test [6], 0.000736 µg/mL.

B3: 1P3B2 murine monoclonal anti-RON antibody (antibody, V domains shown)
VH: EVQLQQSGPELEKPGASVKISCKASGYSFTGYNMNWVKQSNGESLEWIGDIDPYYGGTRYNQKFKGKATLTVDKSSSTAYMQLKSLTSEDSAVYYCAREGRGFAYWGQGTLVTVSA
VL: DIQMTQSPASLSASVGETVTITCRASENIYSYLAWYQKKQGKSPQLLVYNAKTSVEGVPSRFSGSGSGIQFSLKINSLQPEDFGSYYCHCQHHYGTLPTFGGGTKLEIK
Regarding B3, the EC50 in test [3] stood at 0.006 µg/mL; in test [4], 0.011 µg/mL; in test [5] it was 0.01 µg/mL.

B4: 1P4A3 murine monoclonal anti-RON antibody (antibody, V domains shown)
VH: EVQLQQSGPELEKPGASVMISCKASGYSFTGYNMNWVKQSTGKSLEWIGDIDPYYDGTRYNQKFKGKATLTADKSSSTAYMQLKSLTSEDSAVYYCTREGRGFAYWGQGTLVTVSA
VL: DIQMTQSPASLSASVGETVTITCRASENIYSYLAWYQQKQGKSPQLLVYNAKTLAGGVPSRFSGSGSGTQFSLKINSLQPEDFGSYYCQHYYGTPLTFGAGTKLELK
For B4, the EC50 in test [3] was found to be 0.011 µg/mL; in test [4], 0.018 µg/mL; in test [5], 0.003 µg/mL; in test [6], 0.003 µg/mL.

B5: 1P5B10 murine monoclonal anti-RON antibody (antibody, V domains shown)
VH: EVQLQQSGPELVKPGASMKISCRAAGFSFTGYTMNWVKQSHGKSLEWIGLINLNNGGTSHNQKFKGKATLTVDKSSSTAYMELLSLTSEDSAVYYCARWLRRGGYAMDYWGQGISVTVSS
VL: DILLTQSPAILSVSPGERVSFSCRASQNIGTSIHWYQQRTNGSPRLLIKYASESISGIPSRFSGSGSGTDFTLSINSVESEDIADYYCQQSDSWPLTFGAGTKLELK
For the molecule B5, the EC50 is 0.051 µg/mL in test [3], 0.013 µg/mL in test [4], 0.002 µg/mL in test [5] and 0.001 µg/mL in test [6].

B6: 1P4A12 murine monoclonal anti-RON antibody (antibody, V domains shown)
VH: EVQLQQSGPELVKPGASMKISCKASGYSFTGYTMNWVKQSHGKKLEWIGLINPYNGGTIYNQKFKGKATLTVDKSSSTAYMELLSLTSEDSAVYYCARWLRRGGYAMDYWGQGASVTVSS
VL: DILLTQSPAILSVSPGERVSFSCRASQSIGTSIHWYQQRTNGSPRLLIKFASESISGIPSRFSGSGSGTDFTLSINSVESEDIADYYCQQSDSWPLTFGAGTKLEVK
For B6, the EC50 turned out to be 0.01 µg/mL in test [3], 0.016 µg/mL in test [4], 0.005 µg/mL in test [5] and 0.002 µg/mL in test [6].
